The test has as its target Endogenous Ras of HEK-293T cells (human (endogenous in HEK-293T cells)). As to the kind of experiment: cell-based or functional assay.

B1: Flag-tagged full-length GRF4 (enzyme, not shown: small tags and cut ends)
chain: MKPLAIPANHGVMGQQEKHSLPADFTKLHLTDSLHPQVTHVSSSHSGCSITSDSGSSSLSDIYQATESEAGDMDLSGLPETAVDSEDDDDEEDIERASDPLMSRDIVRDCLEKDPIDRTDDDIEQLLEFMHQLPAFANMTMSVRRELCAVMVFAVVERAGTIVLNDGEELDSWSVILNGSVEVTYPDGKAEILCMGNSFGVSPTMDKEYMKGVMRTKVDDCQFVCIAQQDYCRILNQVEKNMQKVEEEGEIVMVKEHRELDRTGTRKGHIVIKGTSERLTMHLVEEHSVVDPTFIEDFLLTYRTFLSSPMEVGKKLLEWFNDPSLRDKVTRVVLLWVNNHFNDFEGDPAMTRFLEEFENNLEREKMGGHLRLLNIACAAKAKRRLMTLTKPSREAPLPFILLGGSEKGFGIFVDSVDSGSKATEAGLKRGDQILEVNGQNFENIQLSKAMEILRNNTHLSITVKTNLFVFKELLTRLSEEKRNGAPHLPKIGDIKKASRYSIPDLAVDVEQVIGLEKVNKKSKANTVGGRNKLKKILDKTRISILPQKPYNDIGIGQSQDDSIVGLRQTKHIPTALPVSGTLSSSNPDLLQSHHRILDFSATPDLPDQVLRVFKADQQSRYIMISKDTTAKEVVIQAIREFAVTATPDQYSLCEVSVTPEGVIKQRRLPDQLSKLADRIQLSGRYYLKNNMETETLCSDEDAQELLRESQISLLQLSTVEVATQLSMRNFELFRNIEPTEYIDDLFKLRSKTSCANLKRFEEVINQETFWVASEILRETNQLKRMKIIKHFIKIALHCRECKNFNSMFAIISGLNLAPVARLRTTWEKLPNKYEKLFQDLQDLFDPSRNMAKYRNVLNSQNLQPPIIPLFPVIKKDLTFLHEGNDSKVDGLVNFEKLRMIAKEIRHVGRMASVNMDPALMFRTRKKKWRSLGSLSQGSTNATVLDVAQTGGHKKRVRRSSFLNAKKLYEDAQMARKVKQYLSNLELEMDEESLQTLSLQCEPATNTLPKNPGDKKPVKSETSPVAPRAGSQQKAQSLPQPQQQPPPAHKINQGLQVPAVSLYPSRKKVPVKDLPPFGINSPQALKKILSLSEEGSLERHKKQAEDTISNASSQLSSPPTSPQSSPRKGYTLAPSGTVDNFSDSGHSEISSRSSIVSNSSFDSVPVSLHDERRQRHSVSIVETNLGMGRMERRTMIEPDQYSLGSYAPMSEGRGLYATATVISSPSTEELSQDQGDRASLDAADSGRGSWTSCSSGSHDNIQTIQHQRSWETLPFGHTHFDYSGDPAGLWASSSHMDQIMFSDHSTKYNRQNQSRESLEQAQSRASWASSTGYWGEDSEGDTGTIKRRGGKDVSIEAESSSLTSVTTEETKPVPMPAHIAVASSTTKGLIARKEGRYREPPPTPPGYIGIPITDFPEGHSHPARKPPDYNVALQRSRMVARSSDTAGPSSVQQPHGHPTSSRPVNKPQWHKPNESDPRLAPYQSQGFSTEEDEDEQVSAV
As to B1, the “enhancement of Ras activation in cells after 8-Br-cAMP (GST-Raf1-RBD precipitation)” value was found to be 3.9 fold and the “enhancement of Ras activation in cells after 8-Br-cAMP plus H-89 (GST-Raf1-RBD precipitation)” value worked out at 3.5 fold.

For the origin of these results see patent US20020143164A1 (published 2002).
